What all share (assay): cell_activity
Series [1] deals with ZF6xHunt-Kox-1 (artificial (human Zif268 scaffold)). Particulars: mRNA repression up to 2.5-fold (60%); protein 2-fold; STHdh cells 20 days.
Series [2] relates to ZF11xHunt-Kox-1 (ZF-Kox-1) (artificial (human Zif268 scaffold)).
The test system of series [3] is mZF11-ZF87 (mZF-ZF87, mZF-KRAB) (artificial (mouse Zif268 scaffold)). Particulars: R6/1 mice, 2 weeks after AAV injection; mZF-ZF87 design given as SEQ 50 (p342), legend of FIG. 13 cites SEQ 49.
Sequence of mZF11-ZF87 (mZF-ZF87, mZF-KRAB) (artificial (mouse Zif268 scaffold)) (chain, as listed by the source): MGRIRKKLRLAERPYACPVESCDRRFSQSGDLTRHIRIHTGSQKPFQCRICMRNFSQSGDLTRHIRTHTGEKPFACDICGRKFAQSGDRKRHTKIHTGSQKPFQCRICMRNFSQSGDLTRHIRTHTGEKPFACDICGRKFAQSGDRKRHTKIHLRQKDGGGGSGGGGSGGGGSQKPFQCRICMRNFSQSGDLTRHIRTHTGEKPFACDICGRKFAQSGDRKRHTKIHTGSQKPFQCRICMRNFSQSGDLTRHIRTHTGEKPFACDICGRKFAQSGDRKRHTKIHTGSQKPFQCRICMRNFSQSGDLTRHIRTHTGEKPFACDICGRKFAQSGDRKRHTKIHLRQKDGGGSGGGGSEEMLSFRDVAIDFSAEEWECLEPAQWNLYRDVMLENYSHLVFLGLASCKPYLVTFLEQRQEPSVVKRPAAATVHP

Sequence of ZF11xHunt-Kox-1 (ZF-Kox-1) (artificial (human Zif268 scaffold)) (chain, as listed by the source): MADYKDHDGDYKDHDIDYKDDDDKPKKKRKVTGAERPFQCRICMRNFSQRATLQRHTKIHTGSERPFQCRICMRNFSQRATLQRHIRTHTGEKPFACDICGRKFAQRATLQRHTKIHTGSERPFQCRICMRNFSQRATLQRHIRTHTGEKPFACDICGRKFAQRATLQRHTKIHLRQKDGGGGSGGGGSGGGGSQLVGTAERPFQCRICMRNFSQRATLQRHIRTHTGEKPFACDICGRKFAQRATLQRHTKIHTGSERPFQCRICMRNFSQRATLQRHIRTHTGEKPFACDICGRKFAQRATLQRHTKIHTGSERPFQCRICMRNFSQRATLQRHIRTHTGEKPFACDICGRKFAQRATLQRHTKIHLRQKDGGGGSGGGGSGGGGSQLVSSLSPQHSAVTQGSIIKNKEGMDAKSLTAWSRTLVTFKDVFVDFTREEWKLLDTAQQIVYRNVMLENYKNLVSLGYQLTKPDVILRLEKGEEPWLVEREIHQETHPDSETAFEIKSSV
Sequence of ZF6xHunt-Kox-1 (artificial (human Zif268 scaffold)) (chain, as listed by the source): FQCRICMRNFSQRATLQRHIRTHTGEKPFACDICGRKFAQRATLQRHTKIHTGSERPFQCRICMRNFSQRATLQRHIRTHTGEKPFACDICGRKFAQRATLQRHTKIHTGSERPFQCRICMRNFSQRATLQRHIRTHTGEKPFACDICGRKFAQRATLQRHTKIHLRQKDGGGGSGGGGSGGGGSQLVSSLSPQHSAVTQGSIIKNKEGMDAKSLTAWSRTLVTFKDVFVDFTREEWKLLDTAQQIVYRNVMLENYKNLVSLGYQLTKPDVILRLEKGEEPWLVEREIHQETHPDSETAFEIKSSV

Turning to chromosomal mutant Htt Q111 (STHdhQ111), the activity in series [1] was found to be 2.5 fold; in series [2] (almost 80% mRNA reduction, 95% protein reduction, STHdh cells 20 days), 80 % reduction.
For “mutant HTT transgene in R6/2 or R6/1 mice”, the activity in series [3] turned out to be 30 % reduction; in series [2] (R6/2 mice, 2 weeks after AAV injection, mRNA), 35 % reduction.

Source of the values: patent US20190247519.
